Patent US4937390A, “Compound useful for the production of 3-deoxy-3-fluoro-myo-inositol” (University of Pittsburgh, priority 1989, dated 1990)

Substrate: O[C@H]1[C@H](O)[C@@H](O)[C@H](O)[C@@H](O)[C@H]1O
Assay: [3H]myo-inositol uptake by the myo-inositol transporter in PC12 cells
Assay type: cell-based, rat
Conditions: other: Lineweaver-Burke plots, [3H]myo-inositol 25 nM with increasing unlabeled myo-inositol, 37.0 °C
Description: To determine if the effect of the fluoro-myo-inositol analogs might be mediated by the blockade of the myo-inositol transporter, which is responsible for uptake and accumulation of myo-inositol into the cell, the ability of these two compounds to block [^3 H]myo-inositol transport was studied directly.
The uptake of [^3 H]myo-inositol by the myo-inositol transporter was determined as follows:
PC12 cells were gently detached and maintained in a suspension culture in RPMI medium (both myo-inositol and serum free) at 37° C. ]^3 H]myo-inositol was added to this culture at a concentration of 1μCi/ml. Aliquots of this suspension were removed at the indicated time, diluted in 10 volumes of ice-cold PBS containing 10 mM unlabelled myo-inositol to stop the uptake process, centrifuged at 4° C. for 20 minutes at 50 xg. The cell pellet, which contained the transported [^3 H]myo-inositol, was dissolved in dilute NaOH and the radioactivity quantified by liquid scintillation counting.
The […] and Vmax of myoinositol were determined from LineweaverBurke plots
of the uptake of [^3 H]myoinositol (25 nM) in the presence of
increasing concentrations of unlabeled myoinositol in PC12 cells. The Ki
of the two fluoromyo-inositol analogs was determined by conducting the
uptake studies in the presence of a fixed concentration (1 mM) of each

B1: myo-inositol transporter (Rattus norvegicus) (protein)
chain: MRAVLETADIAIVALYFVLVMCIGFFAMWKSNRSTVSGYFLAGRSMTWVAIGASLFVSNIGSEHFIGLAGSGAASGFAVGAWEFNALLLLQLLGWVFIPIYIRSGVYTMPEYLSKRFGGHRIQVYFAALSLLLYIFTKLSVDLYSGALFIQESLGWNLYVSVILLIGMTALLTVTGGLVAVIYTDTLQALLMIIGALTLMVISMMKVGGFEEVKRRYMLASPNVASILLTHNLSNTNSCMVHPKADALKMLRDPTDEDVPWPGFILGQTPASVWYWCADQVIVQRVLAAKNIAHAKGSTLMAGFLKLLPMFIIVVPGMISRILFVDDIACINPEHCMQVCGSRAGCSNIAYPRLVMELVPVGLRGLMMAVMIAALMSDLDSIFNSASTIFTLDVYKLLRNNASSRELMIVGRIFVAFMVVISIAWVPIIVEMQGGQMYLYIQEVADYLTPPVAALFLLAIFWKRCNEQGAFYGGMAGFVLGAIRLILAFTYRAPECDQPDNRPSFIKDIHYMYVATALFWITGLITVIVSLLTPPPTKDQIRTTTFWSKKTVVTKESCSQKDEPYKMQEKSILRCSENSEVVSHTIPNGKSEDSIKGLQPEDVNLLVTCREEGNPVASMGHSGAETPVDAYSNGQAALMGERAREKETESRSRYWKFIDWFCGFKSRSLSKRSLRDSMDEEAVCLQMLEETPRVRVILNIGLFAVCSLGIFMFVYFSL
notes: PC12 cells were gently detached and maintained in a suspension culture; endogenous in cells; host or cells: PC12 cells
Km: 45 µM | Vmax: 2.27 nmol/mg/h
